Experimental data from patent US7968297B2, “Method for identification, isolation and production of antigens to a specific pathogen” (Intercell AG, priority 2001, dated 2011).

B1: ORF2673 (protein, listed as Staphylococcus epidermidis)
chain: MRYLKKVTIYISLLILVSGCGNGKETEIKQNFNKMLDMYPTKNLEDFYDKEGYRDEEFDKKDKGTWIVGSTMTIEPKGKYMESRGMFLYINRNTRTTKGYYYVRKTTDDSKGRLKDDEKRYPVKMEHNKIIPTKPIPNDKLKKEIENFKFFVQYGDFKNLKDYKDGDISYNPNVPSYSAKYQLSNNDYNVKQLRKRYDIPTNQAPKLLLKGDGDLKGSSIGSKSLEFTFIENKEENIFFSDGVQFTPSEDSES
B2: ORF2098 (protein, listed as Staphylococcus epidermidis)
chain: MIKKNKEELNDMEYLVTQENGTEPPFQNEYWNHFEKGIYVDKLSGKPLFTSEDKFESNCGWPSFSKALNDDEIVELVDKSFGMIRTEVRSEKANSHLGHVFNDGPKEKGGLRYCINSAAIQFIPYDKLEELGYGDLIKHFKK
B3: ORF0355 (protein, listed as Staphylococcus epidermidis)
chain: MSKHSATLVIMFLITLLPIFQYQASAHATLEKSTPQQQGVIKDKPEAIKLEFNEPVNTKYSSVTLFDDKGKKIKDLKPITTGWSQTVVFSSEQIVNGTNTIEWHTVSADGHEVGDTFEFSVGKVRLKM
B4: ORF2671 (protein, listed as Staphylococcus epidermidis)
chain: VKHSKKLLLCISFLLITFFIGGCGFMNKDDGKETEIKQNFNKMLNVYPTKNLENFYDKEGYRDEEFDKDDKGTWIVHSKMVIEPKGKNMESRGMVLFINRNTRTSKGYFIVNEIEKDRKGRPINNKKKYPVKMKNNKIIPTKPISNDKLKKEIENFKFFVQYGNFKDIKNYKDGDISYNPNVPSYSAKYQLSNNEYNVQQLRKRYDIPTKKVPKLLLKGDGDLKGSSVGSKNLEFTFIENKEENIYFTDSVLFSPSEDNES
B5: ORF0442 (protein, listed as Staphylococcus epidermidis)
chain: MKKIKTISTLVAGLGIAFLGHTTHADAAENNNQQQSTYNYSTTEVSFSNSGNLYTSGQCTWYVYDKTGGKIGSTWGNANSWATAAQAAGFTVNNTPEEGAIMQSSEGAFGHVAFVESVNNDGSITVSEMNYDGGPFAISTRTISASEASSYNYIHLN
B6: ORF0979 (protein, listed as Staphylococcus epidermidis)
chain: MMIIVMLILSYLIGAFPSGLIIGKLFFKKDIRQYGSGNTGATNSFRVLGRPAGFIVTFLDIFKGFITVFFPLWFPVHADGVISTFFTNGLIVGLFAILGHVYPIYLKFNGGKAVATSAGVVLGVNPILLLILAIIFFSVLKIFKYVSLSSIIAAISCVIGSIIIHDYILLAVSGIVSIILIIRHKSNIVRIFKGEEPKIKWM
B7: ORF2260 (protein, listed as Staphylococcus epidermidis)
chain: MARIATKLGYPESNSFVTNTVIEFVLHNEAYPRLYRIKTRDTNLIKISQANEISRQITNGTMTLEEAKYQLEEIYVAKRDSSLPFKGIAAAIIATSFLYLQGGRLVDIITAVLAGTIGYLVVEILDRKLHAQFIPEFIGSLVIGIISVIGHAFVPSGDLATIIIAAVMPIVPGVLITNAIQDLFGGHMLMFTTKSLEALVTAFGIGAGVSSILILV
B8: ORF2695 (protein, listed as Staphylococcus epidermidis)
chain: MRYLKKVTIYISLLILTIFIGGCGFINKEDSKETEIKQNFNKMLNVYPTKNLEDFYDKEGFRDEEFDKGDKGTWIIRSEMTKQPKGKIMTSRGMVLYINRNTRTAKGYFLIDEIKDDNSGRPIENEKKYPVKMNHNKIFPTKPISDDKLKKEIENFKFFVQYGDFKNLKDYKDGEISYNPNVPSYSAQYQLNNNDNNVKQLRKRYDIPTNQAPKLLLKGDGDLKGSSVGSKNLEFTFVENKEENIFFTDAVQFTPSEDDES
B9: ORF2669 (protein, listed as Staphylococcus epidermidis)
chain: MHYLKKVTIYISLLILVSGCGDSKETEIKQNFNKMLNVYPTKNLEDFYDKEGYRDEEFDKDDKGTWIIRSEMTKQPKGKIMTSKGMVLHMNRNTRSTTGYYVIRKISEDNKSEIDDEEKKYPIKMVNNKIIPTQKINDNKLKNEIENFKFFVQYGSFKNSDDYKEGDIEYNPNAPNYSAQYHLSNDDYNIKQLRKRYDIKTKKTPRLLMRGAGDPKGSSVGYKNLEFTFVKNNEENIYFTDSINFNPSKGKSL
B10: ORF2694 (protein, listed as Staphylococcus epidermidis)
chain: MKHSSKIIVFVSFLILTIFIGGCGFINKEDSKEAEIKQNFNKTLSMYPTKNLEDFYDKEGYRDEEFDKDDKGTWIINSKMIVEPKGEEMEARGMVLRINRNTRTAKGNFIIKRITENNKGIPDVKDKKYPVKMEHNKIIPTKQIKDKKLKKEIENFKFFVQYGNFKNLKDYKDGEISYNPNVPSYSAQYQLNNYDNNVKQLRKRYDIPTNQAPKLLLKGTGDLKGSSVGYKHLEFTFVENKKENIYFTDSINFNPSRGN
B11: CRF2729 (protein)
chain: GMKMISISDEINCLICCNCVGLCSFISSAKYIFWISISSNTVAKTSIKRGKFLVTARSIRR
B12: CRF2155 (protein)
chain: ILSAALSTPALLNNTSILPNCSFMSDTKSTTCCSLALSTLYAFALSPLLLILSTVSDTASAMSTANTYAPY
B13: CRF2349 (protein)
chain: SIIVNTVSKCIKVRLVGISIATTFLNVACGFSKIRRANFSIACADVRSETPIAKTSLDKTSSSPPSILNGQSRSNQIGIFASLNLG

These molecules were tested against T1, DRA1*0101/DRB1*0401 (Homo sapiens, UniProt P01903+P01911, A100K/A169T/F76Y/I96L/K127E/L162R/M171V/N62H/P40V/Q125Y/R42H/S133A/S149N/S66Y/V115G/V209L/W38E) (assay: Competition assay with soluble HLA class II molecules). Conditions: binding to soluble DRA1*0101/DRB1*0401 molecules.
T1 construct: using recombinant soluble versions of HLA class II molecules; made in house; host or cells: SC-2 cells
Parameters: key: +, + +: binding; +, + +: binding; −: no competition up to 200 μM test peptide
Experimental: Binding of peptides to HLA molecules on the surface of antigen-presenting cells is a prerequisite for activation of T cells. Binding was assessed in vitro by two independent biochemical assays using recombinant soluble versions of HLA class II molecules. One assay measures the concentration dependent competitive replacement of a labeled reference peptide by the test peptides. The second assay is based on the formation of SDS-stable complexes upon binding of high- and intermediate affinity ligands.
Soluble HLA molecules (DRA1*0101/DRB1*0101 and DRA1*0101/DRB1*0401) were expressed in SC-2 cells and purified as described in Aichinger et al., 1997. For the competition assay (Hammer et al. 1995) HLA molecules were applied between 50 and 200 ng/well. For DRB1*0101 biotinilated indicator peptide HA (PKYVKQNTLKLAT—SEQ ID NO:602, Valli et al. 1993) was used at 0.008 μM. […] Molecules, indicator and test peptides were incubated overnight at 37° C., pH 7. HLA:peptide complexes obtained after incubation with serial dilutions of test and reference peptides (the known high-affinity binders HA and UD4 were used as positive control) were captured in ELISA plates coated with antibody L243, which is known to recognize a conformational epitope formed only by correctly associated heterodimers. Incorporated biotin was measured by standard colorimetric detection using a streptavidin-alkaline phosphatase conjugate (Dako) with NBT/BCIP tablets (Sigma) as substrate and automated OD reading on a Victor reader (Wallac).
For AGGIFYNQTNQQLLVLCDGMGGHK [p23-47], the binding was “− (−: no competition up to 200 μM test peptide)”.
In the case of ALVFEKSVVIANVGDSRA [p107-124], the binding is reported as “− (−: no competition up to 200 μM test peptide)”.
In the case of FMVEGQRVRTISTYAINNTRCTIF [p395-418], the binding is reported as “− (−: no competition up to 200 μM test peptide)”.
“FPYIPDKAVYNAIVKVVVANIGYEGQ (FPYIPDKAVYNAIVKVVVANIGYEGQY; listed as Staphylococcus aureus) [p620-646]” was tested, and the binding was “+”.
For “GESLNIIASRYGVSVDQLMAANNLRG (listed as Staphylococcus aureus) [p96-121]”, the binding was “− (−: no competition up to 200 μM test peptide)”.
With IKINHFCVVPQINSFKVIPPYGHNS [p226-251] the binding was “− (−: no competition up to 200 μM test peptide)”.
In the case of IKLVSYDTVKDYAYIRFSVSNGTKA [p209-233], the binding is reported as “+”.
For KDYAYIRFSVSNGTKAVKIVSSTHFNN [p218-244], the binding was “+”.
KEFKSFYSIRKSSLGVASVAISTL [p6-30] was tested, and the binding was “+ +”.
For KLLVLTMSTLFATQIMNSNHAKASV [p4-29], the binding was “+”.
For MHVPSFQNNTTATHQN [p254-270], the binding was “+”.
In the case of “MNYGYGPGVVTSRTISASQA (EMNYGYGPGVVTSRTISASQA; listed as Staphylococcus aureus) [p240-260]”, the binding is reported as “+”.
With MTLPLMALLALSSIVAFVLPRKRKN [p623-647] the binding was “− (−: no competition up to 200 μM test peptide)”.
“NNLRGYLIMPNQTLQIPNG (NNLRGYLIMPNQTLQIPNGG; listed as Staphylococcus aureus) [p117-136]” was tested, and the binding was “− (−: no competition up to 200 μM test peptide)”.
“PKLRSFYSIRKSTLGVASVIVST (listed as Staphylococcus aureus) [p6-28]” was tested, and the binding was “+”.
For “PSLNIKNVNYQYAVPSYSPT (listed as Staphylococcus aureus) [p306-326]”, the binding was “+”.

Each molecule was assayed on antibodies in human patient sera (assay: Western blot reactivity of selected clones with human sera). Conditions: clone and its aa region are named in the cell; prefix A/B/C = screen the clone came from.
Type: binding
Experimental: For Western blot analysis approximately 10 to 20 μg of total cellular protein was separated by 10% SDS-PAGE and blotted onto HybondC membrane (Amersham Pharmacia Biotech, England). The LamB or FhuA fusion proteins were detected using human serum as the primary antibody at a dilution of 1:5000 and anti human IgG antibodies coupled to HRP at a dilution of 1:5000 as secondary antibodies. Detection was performed using the ECL detection kit (Amersham Pharmacia Biotech, England). Alternatively, rabbit anti FhuA or mouse anti LamB antibodies were used as primary antibodies in combination with the respective secondary antibodies coupled to HRP for the detection of the fusion proteins.
Subsequent sequencing of a larger number of randomly picked clones (500 to 800 per screen) led to the identification of the gene and the corresponding peptide or protein sequence that was specifically recognized by the human patient serum used for screening. The frequency with which a specific clone is selected reflects at least in part the abundance and/or affinity of the specific antibodies in the serum used for selection and recognizing the epitope presented by this clone. […] All clones that are presented in Table 2 have been verified by Western blot analysis using whole cellular extracts from single clones to show the indicated reactivity with the pool of human serum used in the screen.
10 to 30 different human patient sera were subsequently used to evaluate the presence of antibodies against the selected immunogenic peptide sequences that have been discovered in the screen according to the present invention. To eliminate possible cross-reactivity with proteins expressed by E. coli, all sera were pre-adsorbed with a total cellular lysate of E. coli DHa cells expressing FhuA protein.
This analysis is summarized in Table 2 and as an example shown in FIG. 4 and is indicative of the validity of the present screen.
In the case of B1, the “Serum reactivity with relevant region (positive/total)” value (“Serum reactivity … (positive/total)” below) is reported as “B: SELAE25(23-54): 2/12”.
For B2, the “Serum reactivity … (positive/total)” value was “A: SEFAQ50(15-57): 5/12”.
For B3, the “Serum reactivity … (positive/total)” value was “C: GSBBL39(63-86): 1/1”.
B4 was tested, and the “Serum reactivity … (positive/total)” value was “B: SELAD21(36-61): 5/12”.
For B5, the “Serum reactivity … (positive/total)” value was “C: GSBBM60(65-84): 1/1”.
In the case of B6, the “Serum reactivity … (positive/total)” value is reported as “B: SELAH01(26-49): 5/12”.
B7 was tested, and the “Serum reactivity … (positive/total)” value was “B: SELAG77(123-142): 12/12”.
In the case of B8, the “Serum reactivity … (positive/total)” value is reported as “A: SEFAH77(22-66): 6/12”.
B9 was tested, and the “Serum reactivity … (positive/total)” value was “B: SELAE27(22-51): 5/12”.
With B10 the “Serum reactivity … (positive/total)” value was “B: SELAB26(27-60): 5/12”.

Same assay, conditions: positive sera / total sera tested; clone and its aa region named in the cell
With B11 the “Serum reactivity … (positive/total)” value was “SALAQ25(40-56): 1/1”.
For B12, the “Serum reactivity … (positive/total)” value was “SALAQ54(54-66): 1/12”.
B13 was tested, and the “Serum reactivity … (positive/total)” value was “GSBXC92(52-67): 2/11”.
